Source: patent US9938510B2, “Photobacterium sp. alpha-2-6-sialyltransferase variants” (The Regents of the University of California, priority 2014, dated 2018)

B1: Psp26ST(15-501)-His6: recombinant Photobacterium sp. JH-ISH-224 α2-6-sialyltransferase, residues 15-501, C-terminal His6, wild-type; SEQ ID NO: 23 (protein)
chain: CNNSEENTQSIIKNDINKTIIDEEYVNLEPINQSNISFTKHSWVQTCGTQQLLTEQNKESISLSVVAPRLDDDEKYCFDFNGVSNKGEKYITKVTLNVVAPSLEVYVDHASLPTLQQLMDIIKSEEENPTAQRYIAWGRIVPTDEQMKELNITSFALINNHTPADLVQEIVKQAQTKHRLNVKLSSNTAHSFDNLVPILKELNSFNNVTVTNIDLYDDGSAEYVNLYNWRDTLNKTDNLKIGKDYLEDVINGINEDTSNTGTSSVYNWQKLYPANYHFLRKDYLTLEPSLHELRDYIGDSLKQMQWDGFKKFNSKQQELFLSIVNFDKQKLQNEYNSSNLPNFVFTGTTVWAGNHEREYYAKQQINVINNAINESSPHYLGNSYDLFFKGHPGGGIINTLIMQNYPSMVDIPSKISFEVLMMTDMLPDAVAGIASSLYFTIPAEKIKFIVFTSTETITDRETALRSPLVQVMIKLGIVKEENVLFWA
modifications: C-terminal His6; Synthetic Psp26ST(15-501) WILD TYPE
B2: A366G: Photobacterium sp. JH-ISH-224 α2-6-sialyltransferase residues 15-501, A366G point mutation, C-terminal His6; SEQ ID NO: 2 (protein)
chain: CNNSEENTQSIIKNDINKTIIDEEYVNLEPINQSNISFTKHSWVQTCGTQQLLTEQNKESISLSVVAPRLDDDEKYCFDFNGVSNKGEKYITKVTLNVVAPSLEVYVDHASLPTLQQLMDIIKSEEENPTAQRYIAWGRIVPTDEQMKELNITSFALINNHTPADLVQEIVKQAQTKHRLNVKLSSNTAHSFDNLVPILKELNSFNNVTVTNIDLYDDGSAEYVNLYNWRDTLNKTDNLKIGKDYLEDVINGINEDTSNTGTSSVYNWQKLYPANYHFLRKDYLTLEPSLHELRDYIGDSLKQMQWDGFKKFNSKQQELFLSIVNFDKQKLQNEYNSSNLPNFVFTGTTVWGGNHEREYYAKQQINVINNAINESSPHYLGNSYDLFFKGHPGGGIINTLIMQNYPSMVDIPSKISFEVLMMTDMLPDAVAGIASSLYFTIPAEKIKFIVFTSTETITDRETALRSPLVQVMIKLGIVKEENVLFWA
modifications: C-terminal His6; Synthetic Psp26ST(15-501) A366G

Assays:
[1] = Sialylation assay with periodic addition of CMP-Neu5Ac; type: biochemical
Procedure: Two reactions were set up at 20° C. in MES buffer (200 mM, pH 5.0) containing Psp2,6ST(15-501)-His6 (6.0 μM), CMP-Neu5Ac (1 mM), and GalNAcα2AA (1 mM) in a total volume of 50 μL. One of the reactions was used as a control and was incubated for 4 h. The other was incubated for 1 h, 2 equivalents of CMP-Neu5Ac was then added. The same dose was added every hour for up to 4 h reaction duration. Aliquots (2 μL each) were withdrawn and the reactions were stopped by adding 10 μL of cold ethanol followed by centrifugation. The samples were diluted and kept on ice until aliquots of 8 μL were injected and analyzed by a Shimadzu LC-6AD system equipped with a membrane on-line degasser, a temperature control unit, and a fluorescence detector (Shimadzu RF-10AXL). A reverse-phase Premier C18 column (250×4.6 mm i.e., 5 μm particle size, Shimadzu) protected with a C18 guard column cartridge was used. The mobile phase was 25% acetonitrile in water. The 2-aminobenzoic acid (2AA)-labeled fluorescent acceptor and the product formed were detected with excitation at 315 nm and emission at 400 nm.

[2] = earlier reports (Ding 2011; Sun 2008); cited from earlier work
[3] = Apparent sialyltransferase kinetics, GalNAcαSer as acceptor; type: biochemical
Procedure: (§1) Reactions were carried out in duplicate at 20° C. for 20 minutes in a total volume of 10 μL in a proper buffer at the optimal pH according to the pH profile of the wild-type enzyme (see, Ding, 2011, supra). When LacβMU was used as an acceptor, the conditions were: Tris-HCl buffer (200 mM, pH 8.0), enzyme (0.3 μM), varied concentrations of LacβMU (0.1, 0.25, 0.4, 1.0, 2.0, 4.0, and 6.0 mM) with a fixed concentration of CMP-Neu5Ac (1.0 mM) or varied concentrations of CMP-Neu5Ac (0.1, 0.25, 0.4, 1.0, 2.0, 4.0, and 6.0 mM) with a fixed concentration of LacβMU (1.0 mM). When GalNAcα2AA was used as an acceptor, the conditions were: NaOAc-HOAc buffer (200 mM, pH 5.0), enzyme (6 μM), varied concentrations of GalNAcα2AA (0.5, 0.8, 1.0, 2.0, 4.0, 8.0, and 10.0 mM) and a fixed concentration of CMP-Neu5Ac (4.0 mM) or varied concentrations of CMP-Neu5Ac (0.5, 1.0, 2.0, 4.0, 5.0, 8.0, and 10.0 mM) with a fixed concentration of GalNAcα2AA (1.0 mM). When GalNAcαSer was used as an acceptor, the conditions were: Tris-HCl buffer (200 mM, pH 8.0), enzyme (0.6 μM), varied concentrations of GalNAcαSer (0.1, 0.25, 0.5, 1.0, 2.0, 4.0, 8.0, and 10.0 mM) and a fixed concentration of CMP-Neu5Ac (2.0 mM). […]

[4] = Sialyltransferase activity assays, statements not tied to one acceptor (LacβMU, GalNAcα2AA, GalNAcαSer, GalNAcαThr); type: biochemical; details: α-linked N-acetyl galactosaminides, especially GalNAcα2AA or GalNAcαThr, as acceptor
Procedure: When LacβMU was used as an acceptor, the assay was performed in duplicate in 10 μL of Tris-HCl buffer (100 mM, pH 8.0) containing CMP-Neu5Ac (1 mM), LacβMU (1 mM), MgCl2 (20 mM), wild-type Psp2,6ST(15-501)-His6 or its mutant (0.3 μM). When an α-GalNAc-terminated acceptor was used, the assay was performed in duplicate in 10 μL of Tris-HCl buffer (100 mM, pH 8.0 for GalNAcαSer/Thr) or NaOAc-HOAc (100 mM, pH 5.0 for GalNAcα2AA) containing CMP-Neu5Ac (1.5 mM), the acceptor (1 mM), MgCl2 (20 mM), wild-type Psp2,6ST(15-501)-His6 or its mutant (3.0 μM). Reactions were allowed to proceed at 20° C. for 20 min and stopped by adding 10 μL of cold ethanol. The analysis of sialylated product conversion was performed using the HPLC system as described above for sialyltransferase activity assay. The 4-methylumbelliferone (MU)-labeled fluorescent acceptor and the product formed were detected with excitation at 325 nm and emission at 372 nm. The 2-aminobenzoic acid (2AA)-labeled fluorescent acceptors and the products formed were detected with excitation at 315 nm and emission at 400 nm. The 9-fluorenylmethylcarbamate (Fmoc)-labeled fluorescent acceptors and the products formed were detected with excitation at 262 nm and emission at 313 nm.

[5] = Apparent sialyltransferase kinetics, GalNAcαThr as acceptor; type: biochemical
Procedure: as §1

[6] = Apparent sialyltransferase kinetics, GalNAcα2AA as acceptor; type: biochemical
Procedure: as §1

Molecule	sialylation yield ([1]; after an additional two equivalents of CMP-Neu5Ac, in 15 min) [%]	sialylation yield ([1]; after the fourth dose (2 equivalents) of CMP-Neu5Ac) [%]	sialylation yield ([1]; after the third dose (2 equivalents) of CMP-Neu5Ac) [%]	sialylated product Neu5Acα2-6GalNAcα2AA formed ([1]; one equivalent of CMP-Neu5Ac, MES pH 5.0, 20° C., enzyme 6.0 μM, GalNAcα2AA 1 mM) [%]	expression level of soluble protein [2] [mg/L]	catalytic efficiency (kcat/Km) higher than the wild-type enzyme [3] [fold]	sialyltransferase activity compared to wild-type [4]	catalytic efficiency (kcat/Km) higher than the wild-type enzyme [5] [fold]	catalytic efficiency (kcat/Km) higher than the wild-type enzyme [6] [fold]
B1	17	33	25	7.3	25				
B2						1.2	improved sialyltransferase activity	2.1	1.3
